Assays:
[1] = target: T1, wild-type LEPR on HEK293 reporter cells (UniProt P48357 22-1165, limits assumed); assay: cell-based or functional assay
T1 sequence (looked up): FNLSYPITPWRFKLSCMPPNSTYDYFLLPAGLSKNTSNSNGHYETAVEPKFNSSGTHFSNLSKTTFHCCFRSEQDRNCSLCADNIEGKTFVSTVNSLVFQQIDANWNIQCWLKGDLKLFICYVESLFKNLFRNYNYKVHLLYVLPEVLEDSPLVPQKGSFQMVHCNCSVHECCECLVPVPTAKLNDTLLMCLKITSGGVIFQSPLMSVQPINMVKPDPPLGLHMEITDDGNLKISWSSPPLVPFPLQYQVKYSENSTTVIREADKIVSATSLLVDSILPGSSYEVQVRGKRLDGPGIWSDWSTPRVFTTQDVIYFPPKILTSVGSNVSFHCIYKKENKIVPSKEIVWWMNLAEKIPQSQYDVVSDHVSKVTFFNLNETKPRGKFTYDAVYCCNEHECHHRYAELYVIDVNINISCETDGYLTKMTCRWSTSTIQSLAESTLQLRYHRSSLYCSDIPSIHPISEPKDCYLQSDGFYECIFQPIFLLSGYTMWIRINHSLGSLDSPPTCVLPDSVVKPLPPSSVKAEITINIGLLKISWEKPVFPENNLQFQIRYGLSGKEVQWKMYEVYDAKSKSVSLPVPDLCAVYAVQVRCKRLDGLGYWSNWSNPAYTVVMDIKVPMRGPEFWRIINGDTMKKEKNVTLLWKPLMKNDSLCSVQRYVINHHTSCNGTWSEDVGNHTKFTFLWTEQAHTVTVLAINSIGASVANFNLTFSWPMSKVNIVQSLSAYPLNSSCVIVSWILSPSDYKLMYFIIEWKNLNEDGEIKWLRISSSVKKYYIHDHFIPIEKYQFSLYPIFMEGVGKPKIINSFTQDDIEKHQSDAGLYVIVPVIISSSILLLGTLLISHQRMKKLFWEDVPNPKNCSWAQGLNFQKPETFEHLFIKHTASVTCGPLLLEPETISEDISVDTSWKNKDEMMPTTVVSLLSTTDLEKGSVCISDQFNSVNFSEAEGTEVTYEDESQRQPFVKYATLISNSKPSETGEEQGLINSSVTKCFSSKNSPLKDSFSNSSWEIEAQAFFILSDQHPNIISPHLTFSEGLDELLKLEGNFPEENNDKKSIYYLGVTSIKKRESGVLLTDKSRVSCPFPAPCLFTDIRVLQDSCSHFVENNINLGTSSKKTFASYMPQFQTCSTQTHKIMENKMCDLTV

[2] = target: T2, LEPR-P316T (signaling-impaired mutant) on HEK293 reporter cells (human, UniProt P48357 22-1165); assay: cell-based or functional assay
T2 sequence: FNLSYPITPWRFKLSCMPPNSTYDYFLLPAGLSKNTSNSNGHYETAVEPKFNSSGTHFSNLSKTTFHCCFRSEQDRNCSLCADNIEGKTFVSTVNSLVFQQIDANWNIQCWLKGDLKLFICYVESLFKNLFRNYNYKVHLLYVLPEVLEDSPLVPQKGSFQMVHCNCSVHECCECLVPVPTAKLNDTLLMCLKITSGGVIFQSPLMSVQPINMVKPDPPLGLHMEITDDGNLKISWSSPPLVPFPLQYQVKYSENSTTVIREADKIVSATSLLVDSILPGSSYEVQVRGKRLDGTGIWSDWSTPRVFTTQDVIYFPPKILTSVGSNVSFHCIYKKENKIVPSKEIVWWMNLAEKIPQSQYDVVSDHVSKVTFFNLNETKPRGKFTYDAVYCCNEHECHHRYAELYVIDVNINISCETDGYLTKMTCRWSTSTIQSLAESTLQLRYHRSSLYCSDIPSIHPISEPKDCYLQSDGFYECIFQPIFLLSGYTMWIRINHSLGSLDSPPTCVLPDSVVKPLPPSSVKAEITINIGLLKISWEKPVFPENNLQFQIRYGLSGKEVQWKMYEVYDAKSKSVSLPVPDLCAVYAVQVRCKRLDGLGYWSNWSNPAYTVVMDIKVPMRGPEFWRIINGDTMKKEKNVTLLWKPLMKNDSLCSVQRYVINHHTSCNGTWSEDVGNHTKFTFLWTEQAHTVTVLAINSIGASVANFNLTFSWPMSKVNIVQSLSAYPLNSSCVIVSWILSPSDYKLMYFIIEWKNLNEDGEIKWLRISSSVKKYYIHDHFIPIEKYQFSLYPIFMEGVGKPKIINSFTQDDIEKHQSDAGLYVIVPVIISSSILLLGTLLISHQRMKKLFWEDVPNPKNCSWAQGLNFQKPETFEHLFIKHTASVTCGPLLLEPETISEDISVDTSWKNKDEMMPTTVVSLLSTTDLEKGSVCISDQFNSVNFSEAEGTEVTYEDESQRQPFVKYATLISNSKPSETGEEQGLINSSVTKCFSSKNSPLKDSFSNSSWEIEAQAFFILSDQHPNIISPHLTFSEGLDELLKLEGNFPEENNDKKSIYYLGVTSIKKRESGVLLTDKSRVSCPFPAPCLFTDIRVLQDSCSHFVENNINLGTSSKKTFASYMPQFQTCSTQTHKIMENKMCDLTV

EC50 (read off the curve), pSTAT3 Y705/STAT3 densitometry [1]: ~3e-10 M
EC50 (read off the curve), pSTAT3 Y705/STAT3 densitometry [2]: ~3e-10 M
B1: H4H16679P2 (antibody, V domains shown)
VH: QVQLVESGGGVVQPGRSLRLSCTASGFTFSSYAMYWVRQAPGKGLEWVSVIYYDGSYKYYADSVKGRFTISRDNSKNTLYLQMDSLRAEDTAVYYCASYNWNYWYFDFWGRGTLVTVSS
VL: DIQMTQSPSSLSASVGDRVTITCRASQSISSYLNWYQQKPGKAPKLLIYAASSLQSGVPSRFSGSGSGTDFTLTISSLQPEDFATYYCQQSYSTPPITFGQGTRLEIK

— patent publication US20190309079A1 (Regeneron, published 2019)
